Results published in patent publication US20150203579A1 (Regeneron, published 2015).
Numbering of substitutions follows the chain as printed. Names and notes keep the numbering of the source.

B1: H4xH8992P (antibody, V domains shown)
VH: EVQLVESGGGLVQPGRSLRLSCVASGFALHDYAMHWVRQVPGKGLEWVSSISWNSGVIGYADSLKGRFTISRDNAKNSLYLQMNSLRAEDTALYYCAKGSGSYYVSWFDPWGQGTLVTVSS
VL: not shown
notes: Human IgG4 Fc with 2 or more amino acid changes (H4xH)
B2: H2aM7796N (antibody, mouse IgG2a, V domains shown)
VH: QVQLVESGGGVVQPGRSLRLSCAASGFTFSSYGMHWVRQAPGKGLEWVAIIWSDGDSEYNLDSVKGRFTISRDNSKNTLYLQMNSLRVEDSAVYYCARDRDLEDIWGQGTMVTVSS
VL: DIQMTQSPSSLSASVGDRVTITCRASQGIRNDLGWYQQKPGKAPKRLIYAASNLQSGVPSRFSGSGSGTEFTLTISSLQPEDFATYYCLQHNSYPLTFGGGTKVEIK
notes: Human variable regions, mouse IgG2a Fc; also called H2M7796N
B3: H2aM7780N (antibody, mouse IgG2a, V domains shown)
VH: QVQLVESGGGVVQSGRSLRLSCAASGFTFSSYGMHWVRQAPGKGLEWVAVIWYDGSNIYYSDSVKGRFTISRANSKNTLYLQMNSLRAEDTAVYYCARPGHWNYFFEYWGQGTLVTVSS
VL: DIQMTQSPSSLSASVGDRVTITCRASQSINNYLNWYQQKPGKAPKLLIYTASSLQSGVPSRFSGSGSGTDFTLTISSLQPEDFATYYCQQSYSTPPLTFGQGTQLEIK
notes: Human variable regions, mouse IgG2a Fc (H2aM prefix); also called H2M7780N
B4: H4xH9135P2 (antibody, human IgG4, V domains shown)
VH: EVQLVESGGSVVRPGGSLRLSCVVSGFTFEDYGLSWVRQIPGKGLEWVSGISWTGGNTGYADSVKGRFTISRDNAKNSLYLQMNSLRAEDTALYHCTRDRQWLMQWYFDYWGQGTLVTVSS
VL: not shown
notes: H4xH: modified human IgG4 Fc
B5: H4xH9037P (antibody, human IgG4, V domains shown)
VH: EVQLVESGGGLVQPGGSLRLSCAASGFTFDDYAMHWVRQAPGKGLEWVSGIGWSSGSIGYADSVKGRFTISRDNAKNSLYLQMDSLRPEDSALYYCAKAYTFMITLYFDYWGQGTLVTVSS
VL: not shown
notes: H4xH: modified human IgG4 Fc; also called H4xH9037P2
B6: H4xH9120P2 (antibody, human IgG4, V domains shown)
VH: QVQLVQSGAEVKRPGASVKVSCKASGYTFTSFYMYWVRQAPGQGLEWMGIINPSDGSTSNAQKFQGRVTMTRDTSTSTVYMELSSLRSEDTAVYYCARRVAGDIFDIWGQGTMVTVSS
VL: not shown
notes: H4xH: modified human IgG4 Fc
B7: H4xH8992P (antibody, human IgG4, V domains shown)
VH: B1 VH
VL: not shown
notes: H4xH: modified human IgG4 Fc
B8: H2aM7791N (antibody, mouse IgG2a, V domains shown)
VH: QMQLQQWGAGLLKPSETLSLTCVVYGGSLNGYYWSWIRQSPGKGLEWIGEIDHSGSTNYNPSLKNRVTMSVDTSKIQFSLKLTSVTVADTAVYYCAREGLLPFDYWGQGTLVTVSS
VL: EIVLTQSPGTLSLSPGERVTLSCRASQSVYSNYLAWYQQNPGQAPRLLIYAASNRATGIPDRFSGSGSGTDFTLTISRLEPEDFAVYYCHQYATSPWTFGQGTKVEIK
notes: Human variable domains, mouse IgG2a Fc; also called H2M7791N
B9: H4xH9034P (antibody, V domains shown)
VH: EVQLVESGGGVVRPGGSLRLSCTASGFTFDDYGMSWVRQAPGKGLEWISGIGWTGGRSSYADSVRGRFTISRDNAKNSLYLQMNSLGAEDTALYYCARDRQWLVQWYFDYWGQGTLVTVSS
VL: not shown
notes: Human IgG4 Fc with 2 or more amino acid changes as in US20100331527 (H4xH prefix); also called H4xH9034P2
B10: H2aM7780N (antibody, mouse IgG2a, V domains shown)
VH: B3 VH
VL: B3 VL
notes: also called H2M7780N
B11: H1M7789N (antibody, mouse IgG1, V domains shown)
VH: EVQLLESGGGLVQPGGSLRLSCSASGFTFSSYTMNWVRQAPGKGLEWVSGISDTGGNTYYTDSVKGRFTVSRDNSKNTLSLQMNSLRAEDTAVYYCAKDQGGSYPYYFHYWGQGSLVTVSS
VL: B3 VL with N30S, N31S, N34I, K42T, L46F, T50A, S65C, L97I, Q104R
notes: Human variable domains, mouse IgG1 Fc (H1M prefix)
B12: H4xH9128P2 (antibody, human IgG4, V domains shown)
VH: QVQLQESGPGLVKPSETLSLTCTVSGGSISSYHWNWIRQSPGKGLEWIGYIYYIGSTDYNPSLESRVTISVDTSKNQFSLKLSSVTAADTAVYYCARVPVGATGASDVWGQGTMVTVSS
VL: not shown
notes: H4xH: modified human IgG4 Fc
B13: H4H7795N2 (antibody, human IgG4 S228P, kappa, V domains shown)
VH: EVQVVESGGGLVEPGRSLRLSCKASGFTFDDYAMHWVRQTPGKALEWVSGISWSGNNIGYADSVKGRFTISKDDAKNSLYLQMNSLRPEDTALYYCTKDISITGTLDAFDVWGQGTMVTVSS
VL: DIQMTQSPISVSASVGDRVTITCRASQGISNWLAWYQQKPGIAPKLLIYSASSLQSGVPSRFRGSGSGTDFTLTIGSLQPEDFATYYCQQAHSFPLTFGGGTKVEIKR
B14: H2aM7795N (antibody, mouse IgG2a, V domains shown)
VH: B13 VH with S52N
VL: DIQMTQSPISVSASVGDRVTITCRASQGISNWLAWYQQKPGIAPKLLIYSASSLQSGVPSRFRGSGSGTDFTLTIGSLQPEDFATYYCQQAHSFPLTFGGGTKVEIK
notes: Human variable domains, mouse IgG2a Fc; also called H2M7795N
B15: H4xH9145P2 (antibody, human IgG4, V domains shown)
VH: QVQLVESGGGVVQPGRSLRLSCSASGFTFSAYAMHWVRQAPGKGLEWVAAISYGGSDKYYADSVKGRFTISRDNSKNTLYLQMNSLRTDDTAVYYCAKSAHWNFFFDYWGQGTLVTVSS
VL: not shown
notes: H4xH: modified human IgG4 Fc
B16: H1M7800N (antibody, mouse IgG1, V domains shown)
VH: EVQLVESGGGLVQPGGSLRLSCAASGFTVSNNYMSWVRQAPGKGLEWVSVIYSGGFTYYTDSVKGRFTISRHNSKNTLYLQMNSLRAEDTAVYYCARYYYDTSDYWTFFDYWGQGTLVTVSS
VL: EIVMTQSPATLSVSPGERATLSCRASQSVSSNLAWYQQKPGQAPRLLIYGASTRATGIPARFSGSGSGTEFTLTISSLQSGDFAVYYCQQYNNWPLTFGGGTKVEIN
notes: Human variable domains, mouse IgG1 Fc
B17: H2aM7794N (antibody, V domains shown)
VH: QLQLQESGPDLVKPSDTLSLTCTVSDDSISSTTYYWAWIRQPPGKGLEWIGSMSYNGNNYYNPSLKSRVAISAGTSQKQFSLKLTSVTAADTAVYHCARHLGYNGNWYPFDFWGQGILVTVSS
VL: not shown
notes: Human variable domains, mouse IgG2a Fc; also called H2M7794N
B18: H2aM7788N (antibody, mouse IgG2a, V domains shown)
VH: EVQLVESGGGLVQPGGSLRLSCGASGFTFRNYDMHWVRQITGKGLEWVSAIGSAGDTYYPDSVKGRFTISRENAKNSLYLQMNSLRVGDTAVYYCTRDIHCSSTRCYGMDVWGQGTTVTVSS
VL: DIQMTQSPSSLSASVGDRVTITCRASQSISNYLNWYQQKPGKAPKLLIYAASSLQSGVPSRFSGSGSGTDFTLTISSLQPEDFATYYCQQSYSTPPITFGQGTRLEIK
notes: Human variable domains, mouse IgG2a Fc; also called H2M7788N
B19: H4H9019P (antibody, human IgG4, V domains shown)
VH: EVQLVESGGGVVRPGGSLRLSCAASGFTFDDYGMSWVRQVPGKGLEWVSGISWNDGKTVYAESVKGRFIISRDNAKNSLYLEMNSLRAEDTALYYCARDWQYLIERYFDYWGQGTLVTVSS
VL: not shown
notes: Fully human, human IgG4 Fc (H4H prefix)
B20: H4xH9035P (antibody, human IgG4, V domains shown)
VH: B19 VH with G10R, V40L, S49A, Y80H, E105D, Y110F
VL: not shown
notes: H4xH: modified human IgG4 Fc; also called H4xH9035P2

target: T1, human PD-1 dimer (human PD-1-mFc or human PD-1-hFc) (human, UniProt Q15116 25-170); test: SPR, mAb captured, 25C;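 also: surface plasmon resonance on Biacore, PD-1 flowed over captured anti-PD-1 antibodies, rate constants from a 1:1 binding model fit, KD taken as kd/ka and t½ as ln2/(60·kd)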
T1 construct: also called hPD-1-mFc; hPD1-hFc
T1 sequence (Q15116 25-170 C93S): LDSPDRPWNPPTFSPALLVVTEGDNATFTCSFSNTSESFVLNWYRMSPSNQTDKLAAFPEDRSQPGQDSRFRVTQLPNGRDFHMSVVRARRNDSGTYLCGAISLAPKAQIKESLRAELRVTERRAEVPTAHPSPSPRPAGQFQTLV

Row | Binder | Kd [nM] | t½ [min] | koff [s⁻¹] | kon [M⁻¹ s⁻¹]
1 | B1 | 0.68 | 72 |  | 
2 | B2 | 3.32 | 133 | 8.67e-05 | 26100
3 | B3 | 0.236 | 1160 | 9.94e-06 | 42100

target: T2, recombinant human PD-1 expressed with a C-terminal myc-myc-hexahistidine tag (human); test: SPR (Biacore), mAb captured, hPD-1-MMH injected, 25 C;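 also: rate constants obtained by fitting sensorgrams to a 1:1 binding model, KD derived as kd/ka and half-life as ln2/(60·kd) in minutes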
T2 construct: also called hPD-1-MMH; human PD-1-MMH

Row | Binder | Kd [nM] | koff [s⁻¹] | kon [M⁻¹ s⁻¹] | t½ [min]
4 | B4 | 10.2 | 0.0012 | 117000 | 10
5 | B5 | 10.9 | 0.000795 | 73200 | 15
6 | B6 | 30.1 | 0.000998 | 33200 | 12
7 | B7 | 141 |  |  | 0.5
8 | B8 | 23.4 | 0.000706 | 30100 | 16
9 | B9 | 14.5 | 0.00149 | 102000 | 7.8
10 | B10 | 38.5 | 0.000359 | 9320 | 32
11 | B11 | 2.1 | 5.31e-05 | 25300 | 218
12 | B12 | 14.5 | 0.000719 | 49500 | 16
13 | B13 | 23.3 | 0.00148 | 63500 | 8
14 | B14 | 23.5 | 0.00115 | 49100 | 10
15 | B15 | 38.5 | 0.00134 | 34700 | 8.6
16 | B16 | 161 | 0.00947 | 58800 | 1.2
17 | B17 | 38 | 0.00212 | 55000 | 5.4
18 | B18 | 19.6 | 0.000388 | 19700 | 30
19 | B19 | 39.4 |  |  | 
20 | B20 | 4.62 | 0.000475 | 103000 | 24

Target: T3, recombinant cynomolgus monkey PD-1 expressed with a C-terminal myc-myc-hexahistidine tag (cynomolgus monkey (Macaca fascicularis))
T3 construct: monomeric; also called MfPD-1-MMH
T3 chain: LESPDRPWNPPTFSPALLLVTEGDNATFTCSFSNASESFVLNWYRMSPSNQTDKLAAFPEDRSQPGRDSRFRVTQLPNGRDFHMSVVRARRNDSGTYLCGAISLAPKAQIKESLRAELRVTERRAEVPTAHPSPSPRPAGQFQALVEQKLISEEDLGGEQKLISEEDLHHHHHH
Test: SPR, mAb captured, 37C

Row | Binder | Kd [nM] | koff [s⁻¹] | kon [M⁻¹ s⁻¹] | t½ [min]
21 | B3 | 60.5 | 0.00138 | 22900 | 8.3

target: T1, human PD-1 dimer (human PD-1-mFc or …); test: SPR, mAb captured, 37C

Row | Binder | Kd [nM] | t½ [min] | koff [s⁻¹] | kon [M⁻¹ s⁻¹]
22 | B1 | 2.91 | 11 |  | 
23 | B2 | 19.6 | 27 | 0.000434 | 22100
24 | B3 | 0.23 | 505 | 2.29e-05 | 99400

target: T4, recombinant human PD-1 expressed with a C-terminal myc-myc-hexahistidine tag (human); test: SPR, mAb captured, 37C;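 also: rate constants from fitting sensorgrams to a 1:1 binding model, KD derived as kd divided by ka and half-life as ln2/(60·kd)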
T4 construct: monomeric; also called hPD-1-MMH; human PD-1-MMH

Row | Binder | Kd [nM] | koff [s⁻¹] | kon [M⁻¹ s⁻¹] | t½ [min]
25 | B2 | 1510 | 0.0165 | 10900 | 0.7
26 | B3 | 55.8 | 0.00152 | 27200 | 7.6

Target: T3, recombinant cynomolgus monkey PD-1 …
Test: SPR, mAb captured, 25C;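 also: rates from fitting Biacore data for PD-1 binding to anti-PD-1 antibodies with a 1:1 model, KD computed as koff/kon and t½ as ln2/(60·koff)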

Row | Binder | Kd [nM] | t½ [min] | binding result | koff [s⁻¹] | kon [M⁻¹ s⁻¹]
27 | B1 | 200 | 0.3 |  |  | 
28 | B2 |  |  | no binding (tested: up to 200 nM) |  | 
29 | B3 | 31.5 | 37 |  | 0.000315 | 10000
